One block for each molecule: values may come before it.
Assays:
CTCF WT (human) [1] = assay: single-molecule DNA curtains (TIRF); conditions: 300 mM NaCl wash; DNA curtains: CTCF 10 nM (ZF9-CT 50 nM, ZF4-7 200 nM) or SA 100 nM; load at 50 mM NaCl, wash at 300 mM NaCl; buffer, pH and temperature not given in material
CTCF WT (human) [2] = assay: single-molecule DNA curtains lifetime; conditions: DNA curtains: CTCF 10 nM (ZF9-CT 50 nM, ZF4-7 200 nM) or SA 100 nM, load at 50 mM NaCl, wash at 300 mM NaCl, buffer, pH and temperature not given in material; for binding signal (min (lifetime)): 300 mM NaCl wash, photobleaching corrected
[3] = tested on: CTCF WT;SA2 (human;human?); assay: single-molecule DNA curtains (TIRF); conditions: preincubated 10 nM CTCF, 100 nM SA2; 300 mM NaCl wash; DNA curtains: CTCF 10 nM (ZF9-CT 50 nM, ZF4-7 200 nM) or SA 100 nM; load at 50 mM NaCl, wash at 300 mM NaCl; buffer, pH and temperature not given in material
[4] = tested on: CTCF WT;SA1 (human;human?); assay: single-molecule DNA curtains (TIRF); conditions: preincubated 10 nM CTCF, 100 nM SA1; 300 mM NaCl wash; DNA curtains: CTCF 10 nM (ZF9-CT 50 nM, ZF4-7 200 nM) or SA 100 nM; load at 50 mM NaCl, wash at 300 mM NaCl; buffer, pH and temperature not given in material
[5] = tested on: CTCF ΔRBR (ΔRBR+ΔZF1,10,11) (human); assay: single-molecule DNA curtains lifetime; conditions: 300 mM NaCl wash; CBS enrichment similar to WT; DNA curtains: CTCF 10 nM (ZF9-CT 50 nM, ZF4-7 200 nM) or SA 100 nM; load at 50 mM NaCl, wash at 300 mM NaCl; buffer, pH and temperature not given in material
CTCF ZF9-CT (human) = tested on: T1, CTCF ZF9-CT (human); assay: single-molecule DNA curtains lifetime; conditions: not enriched on CBSs (negative enrichment); prefers AT-rich DNA; DNA curtains: CTCF 10 nM (ZF9-CT 50 nM, ZF4-7 200 nM) or SA 100 nM; load at 50 mM NaCl, wash at 300 mM NaCl; buffer, pH and temperature not given in material
T1 sequence: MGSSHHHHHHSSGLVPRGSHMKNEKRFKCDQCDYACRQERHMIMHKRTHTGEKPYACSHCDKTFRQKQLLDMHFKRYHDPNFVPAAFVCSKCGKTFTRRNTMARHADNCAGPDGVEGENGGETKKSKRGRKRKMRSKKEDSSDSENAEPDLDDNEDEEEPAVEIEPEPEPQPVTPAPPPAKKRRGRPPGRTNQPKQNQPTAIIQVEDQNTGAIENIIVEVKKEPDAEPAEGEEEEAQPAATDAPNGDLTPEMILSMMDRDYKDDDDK

[6] = tested on: T2, CTCF ZF4-7 del1-350;del461-727 (human); assay: single-molecule DNA curtains lifetime; conditions: not enriched on CBSs; DNA curtains: CTCF 10 nM (ZF9-CT 50 nM, ZF4-7 200 nM) or SA 100 nM; load at 50 mM NaCl, wash at 300 mM NaCl; buffer, pH and temperature not given in material
T2 sequence: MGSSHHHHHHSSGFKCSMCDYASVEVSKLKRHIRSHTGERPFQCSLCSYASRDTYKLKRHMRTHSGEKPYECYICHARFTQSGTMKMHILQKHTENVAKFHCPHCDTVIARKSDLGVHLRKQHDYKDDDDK

[7] = target: CTCF ΔNC (truncation mutant missing both CTCF termini, containing all 11 ZFs) (human); assay: single-molecule photobleaching step counting on DNA curtains; labeled CTCF on λ-DNA at 50 mM NaCl without prior removal of unspecifically bound CTCF, 25 ng/μl 100 bp Cy3-RNA added; bleaching steps counted at positions of captured RNA; both lasers at 140 mW
[8] = target: CTCF WT (human CCCTC-binding factor, full-length) (human) (UniProt P49711); assay: as above
[9] = target: T3, CTCF WT (human CCCTC-binding factor, full-length) (human, UniProt P49711 1-727, fluorescent dye (AF568, Atto 643 or Alexa Fluor 660) on the Halo-tag through a chloroalkane linker; unlabeled in the SA transcription experiments); assay: single-molecule DNA curtains (TIRF microscopy), combined loading; 100 or 400 nM SA-LD655 preincubated with 10 nM CTCF in CTCF 100 buffer (40 mM Tris pH 7.5, 100 mM NaCl, 1 mM MgCl2, 1 mg/ml BSA, 1 mM DTT) 5 min at RT; 30 s on λ-DNA with 4× CBSs in 50 mM NaCl, then 3 min (lifetimes: up to 15 min) in 300 mM NaCl; SA read at CBS-bound CTCF (enrichment, lifetime); conditions: both partners purified
T3 construct: 11 zinc fingers and two unstructured termini; also called AF-568-CTCF-WT; AF568-CTCF; source: High Five (Hi5) insect cells, purified (Ni-NTA, heparin, Superose 6); not shown: Halo, N-terminal, kept
T3 sequence (looked up): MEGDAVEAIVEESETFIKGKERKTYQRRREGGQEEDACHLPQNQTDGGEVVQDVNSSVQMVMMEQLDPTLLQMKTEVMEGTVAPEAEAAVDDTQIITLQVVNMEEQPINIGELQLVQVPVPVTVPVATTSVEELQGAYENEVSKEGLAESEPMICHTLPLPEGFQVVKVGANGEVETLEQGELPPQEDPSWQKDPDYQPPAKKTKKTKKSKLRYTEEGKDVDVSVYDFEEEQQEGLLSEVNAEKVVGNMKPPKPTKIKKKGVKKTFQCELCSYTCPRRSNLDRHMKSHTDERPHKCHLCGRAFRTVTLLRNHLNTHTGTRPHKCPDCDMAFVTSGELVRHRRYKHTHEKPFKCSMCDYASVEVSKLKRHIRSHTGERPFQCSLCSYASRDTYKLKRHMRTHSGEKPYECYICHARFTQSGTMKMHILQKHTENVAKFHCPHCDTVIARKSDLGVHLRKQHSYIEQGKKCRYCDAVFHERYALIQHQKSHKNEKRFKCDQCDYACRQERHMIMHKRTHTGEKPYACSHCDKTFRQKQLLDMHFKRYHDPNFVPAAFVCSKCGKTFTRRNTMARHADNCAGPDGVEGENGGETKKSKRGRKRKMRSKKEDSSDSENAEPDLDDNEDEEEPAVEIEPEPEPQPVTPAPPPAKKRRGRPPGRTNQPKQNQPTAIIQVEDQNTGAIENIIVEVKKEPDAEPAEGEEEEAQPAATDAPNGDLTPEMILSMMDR

Molecule: 1xT7-1xCBS λ-DNA
binding signal (fold enrichment on CBS) (CTCF WT (human) [1]): 7 | binding signal (min (lifetime)) (CTCF WT (human) [2]): 50

Molecule: λ-DNA (non-CBS)
binding signal (fold lower lifetime than on CBS) (CTCF WT (human) [2]; coats DNA at 50 mM NaCl, mostly washed off at 300 mM): > 40

Molecule: 2xT7-4xCBSs λ-DNA
binding signal (fold SA2 enrichment on CBS) [3]: 8 | binding signal (fold SA1 enrichment on CBS) [4]: 10 | binding signal (fold enrichment on CBS) (CTCF WT (human) [1]): 16 | binding signal (fold reduced lifetime vs WT) [5]: 2.5 | binding signal (fold reduced lifetime vs WT) (CTCF ZF9-CT (human)): 25 | binding signal (fold reduced lifetime vs WT) [6]: 90 | binding signal (min (lifetime)) (CTCF WT (human) [2]): 50

photobleaching steps in clusters on DNA (bleaching steps) [7]: 9
Molecule: CTCF ΔNC (truncation mutant missing both CTCF termini, containing all 11 ZFs) (domain or fragment)

photobleaching steps in CTCF-RNA clusters [8]: 8.8 steps | stoichiometry N (CTCF molecules) [8]: 17
Molecule: CTCF WT (human CCCTC-binding factor, full-length) (from UniProt P49711 1-727) (natural protein)

fold enrichment on the CBSs with CTCF [9]: 8 fold
B1: Cohesin subunit SA2 (natural protein, UniProt Q8N3U4 1-1231, looked up)
chain: MIAAPEIPTDFNLLQESETHFSSDTDFEDIEGKNQKQGKGKTCKKGKKGPAEKGKGGNGGGKPPSGPNRMNGHHQQNGVENMMLFEVVKMGKSAMQSVVDDWIESYKHDRDIALLDLINFFIQCSGCKGVVTAEMFRHMQNSEIIRKMTEEFDEDSGDYPLTMAGPQWKKFKSSFCEFIGVLVRQCQYSIIYDEYMMDTVISLLTGLSDSQVRAFRHTSTLAAMKLMTALVNVALNLSINMDNTQRQYEAERNKMIGKRANERLELLLQKRKELQENQDEIENMMNAIFKGVFVHRYRDAIAEIRAICIEEIGIWMKMYSDAFLNDSYLKYVGWTMHDKQGEVRLKCLTALQGLYYNKELNSKLELFTSRFKDRIVSMTLDKEYDVAVQAIKLLTLVLQSSEEVLTAEDCENVYHLVYSAHRPVAVAAGEFLYKKLFSRRDPEEDGMMKRRGRQGPNANLVKTLVFFFLESELHEHAAYLVDSMWDCATELLKDWECMNSLLLEEPLSGEEALTDRQESALIEIMLCTIRQAAECHPPVGRGTGKRVLTAKEKKTQLDDRTKITELFAVALPQLLAKYSVDAEKVTNLLQLPQYFDLEIYTTGRLEKHLDALLRQIRNIVEKHTDTDVLEACSKTYHALCNEEFTIFNRVDISRSQLIDELADKFNRLLEDFLQEGEEPDEDDAYQVLSTLKRITAFHNAHDLSKWDLFACNYKLLKTGIENGDMPEQIVIHALQCTHYVILWQLAKITESSSTKEDLLRLKKQMRVFCQICQHYLTNVNTTVKEQAFTILCDILMIFSHQIMSGGRDMLEPLVYTPDSSLQSELLSFILDHVFIEQDDDNNSADGQQEDEASKIEALHKRRNLLAAFCKLIVYTVVEMNTAADIFKQYMKYYNDYGDIIKETMSKTRQIDKIQCAKTLILSLQQLFNEMIQENGYNFDRSSSTFSGIKELARRFALTFGLDQLKTREAIAMLHKDGIEFAFKEPNPQGESHPPLNLAFLDILSEFSSKLLRQDKRTVYVYLEKFMTFQMSLRREDVWLPLMSYRNSLLAGGDDDTMSVISGISSRGSTVRSKKSKPSTGKRKVVEGMQLSLTEESSSSDSMWLSREQTLHTPVMMQTPQLTSTIMREPKRLRPEDSFMSVYPMQTEHHQTPLDYNRRGTSLMEDDEEPIVEDVMMSSEGRIEDLNEGMDFDTMDIDLPPSKNRRERTELKPDFFDPASIMDESVLGVSMF
modifications: LD655-CoA dye on the ybbR-tag (Sfp labeling)
notes: cohesin subunit SA2; also called SA-LD655; source: High Five (Hi5) insect cells, purified (Ni-NTA, heparin, Superose 6); not shown: ybbR, C-terminal, kept

fold enrichment on the CBSs with CTCF [9]: 10 fold
B2: Cohesin subunit SA1 (natural protein, UniProt Q8WVM7 1-1258, looked up)
chain: MITSELPVLQDSTNETTAHSDAGSELEETEVKGKRKRGRPGRPPSTNKKPRKSPGEKSRIEAGIRGAGRGRANGHPQQNGEGEPVTLFEVVKLGKSAMQSVVDDWIESYKQDRDIALLDLINFFIQCSGCRGTVRIEMFRNMQNAEIIRKMTEEFDEDSGDYPLTMPGPQWKKFRSNFCEFIGVLIRQCQYSIIYDEYMMDTVISLLTGLSDSQVRAFRHTSTLAAMKLMTALVNVALNLSIHQDNTQRQYEAERNKMIGKRANERLELLLQKRKELQENQDEIENMMNSIFKGIFVHRYRDAIAEIRAICIEEIGVWMKMYSDAFLNDSYLKYVGWTLHDRQGEVRLKCLKALQSLYTNRELFPKLELFTNRFKDRIVSMTLDKEYDVAVEAIRLVTLILHGSEEALSNEDCENVYHLVYSAHRPVAVAAGEFLHKKLFSRHDPQAEEALAKRRGRNSPNGNLIRMLVLFFLESELHEHAAYLVDSLWESSQELLKDWECMTELLLEEPVQGEEAMSDRQESALIELMVCTIRQAAEAHPPVGRGTGKRVLTAKERKTQIDDRNKLTEHFIITLPMLLSKYSADAEKVANLLQIPQYFDLEIYSTGRMEKHLDALLKQIKFVVEKHVESDVLEACSKTYSILCSEEYTIQNRVDIARSQLIDEFVDRFNHSVEDLLQEGEEADDDDIYNVLSTLKRLTSFHNAHDLTKWDLFGNCYRLLKTGIEHGAMPEQIVVQALQCSHYSILWQLVKITDGSPSKEDLLVLRKTVKSFLAVCQQCLSNVNTPVKEQAFMLLCDLLMIFSHQLMTGGREGLQPLVFNPDTGLQSELLSFVMDHVFIDQDEENQSMEGDEEDEANKIEALHKRRNLLAAFSKLIIYDIVDMHAAADIFKHYMKYYNDYGDIIKETLSKTRQIDKIQCAKTLILSLQQLFNELVQEQGPNLDRTSAHVSGIKELARRFALTFGLDQIKTREAVATLHKDGIEFAFKYQNQKGQEYPPPNLAFLEVLSEFSSKLLRQDKKTVHSYLEKFLTEQMMERREDVWLPLISYRNSLVTGGEDDRMSVNSGSSSSKTSSVRNKKGRPPLHKKRVEDESLDNTWLNRTDTMIQTPGPLPAPQLTSTVLRENSRPMGDQIQEPESEHGSEPDFLHNPQMQISWLGQPKLEDLNRKDRTGMNYMKVRTGVRHAVRGLMEEDAEPIFEDVMMSSRSQLEDMNEEFEDTMVIDLPPSRNRRERAELRPDFFDSAAIIEDDSGFGMPMF
modifications: LD655-CoA dye on the ybbR-tag (Sfp labeling)
notes: cohesin subunit SA1; also called SA-LD655; source: High Five (Hi5) insect cells, purified (Ni-NTA, heparin, Superose 6); not shown: ybbR, C-terminal, kept
